Test results reported in patent publication US20210024651A1 (published 2021).

Experiments:
mouse HER3 = molecular target: T1, mouse HER3 (mouse, UniProt Q61526 20-641, limits assumed); assay: ELISA, plate-coated target, antibody titrated from 10 µg/ml
T1 construct: also called mouse homologue of HER3; M. musculus HER3

rat HER3 = molecular target: T2, rat HER3 (rat, UniProt Q62799 20-643, limits assumed); assay: as above
T2 construct: also called rat homologue of HER3; R. norvegicus HER3

[1] = molecular target: T3, His-tagged FcγRIIIa (V158) (UniProt P08637 17-208); assay: BLI, His-tagged FcγRIIIa (V158) captured on HIS1K tips, antibody in solution
T3 construct: not shown: His tag
Description: Briefly, anti-Penta-HIS (HIS1K) coated biosensor tips (Pall ForteBio, USA) were used to capture His-tagged FcγRIIIa (V158) (270 nM) for 120 s. All measurements were performed at 25° C. with agitation at 1000 rpm. Association kinetic measurements for antigen binding were performed by incubating anti-HER3 antibodies at different concentrations (500 nM to 15.6 nM) for 60 s, followed by a 120 s dissociation time by transferring the biosensors into assay buffer (pH 7.2) containing wells. Sensograms were referenced for buffer effects and then fitted using the Octet QK384 user software (Pall ForteBio, USA). Kinetic responses were subjected to a global fitting using a one site binding model to obtain values for association (Kₒₙ), dissociation (Koff) rate constants and the equilibrium dissociation constant (KD). Only curves that could be reliably fitted with the software (R²>0.90) were included in the analysis.

T2 sequence (Q62799 20-643 limits assumed): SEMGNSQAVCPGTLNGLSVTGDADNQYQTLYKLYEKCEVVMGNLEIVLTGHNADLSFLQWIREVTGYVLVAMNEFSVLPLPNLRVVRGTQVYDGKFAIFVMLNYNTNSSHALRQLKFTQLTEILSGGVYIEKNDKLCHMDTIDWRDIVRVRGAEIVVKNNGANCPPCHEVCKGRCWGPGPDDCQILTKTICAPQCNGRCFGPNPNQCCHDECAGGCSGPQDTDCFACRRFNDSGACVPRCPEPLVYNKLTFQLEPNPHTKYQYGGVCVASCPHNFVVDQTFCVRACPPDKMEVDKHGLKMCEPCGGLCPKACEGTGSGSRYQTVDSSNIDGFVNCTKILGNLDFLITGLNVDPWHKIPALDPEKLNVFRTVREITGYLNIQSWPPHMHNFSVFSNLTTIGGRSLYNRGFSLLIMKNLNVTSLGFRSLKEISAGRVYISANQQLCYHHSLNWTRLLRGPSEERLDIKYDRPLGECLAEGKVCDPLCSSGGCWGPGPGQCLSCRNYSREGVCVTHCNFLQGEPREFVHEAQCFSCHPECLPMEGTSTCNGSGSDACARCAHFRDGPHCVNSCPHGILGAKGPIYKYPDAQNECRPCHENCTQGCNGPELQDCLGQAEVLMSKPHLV
T1 sequence (Q61526 20-641 limits assumed): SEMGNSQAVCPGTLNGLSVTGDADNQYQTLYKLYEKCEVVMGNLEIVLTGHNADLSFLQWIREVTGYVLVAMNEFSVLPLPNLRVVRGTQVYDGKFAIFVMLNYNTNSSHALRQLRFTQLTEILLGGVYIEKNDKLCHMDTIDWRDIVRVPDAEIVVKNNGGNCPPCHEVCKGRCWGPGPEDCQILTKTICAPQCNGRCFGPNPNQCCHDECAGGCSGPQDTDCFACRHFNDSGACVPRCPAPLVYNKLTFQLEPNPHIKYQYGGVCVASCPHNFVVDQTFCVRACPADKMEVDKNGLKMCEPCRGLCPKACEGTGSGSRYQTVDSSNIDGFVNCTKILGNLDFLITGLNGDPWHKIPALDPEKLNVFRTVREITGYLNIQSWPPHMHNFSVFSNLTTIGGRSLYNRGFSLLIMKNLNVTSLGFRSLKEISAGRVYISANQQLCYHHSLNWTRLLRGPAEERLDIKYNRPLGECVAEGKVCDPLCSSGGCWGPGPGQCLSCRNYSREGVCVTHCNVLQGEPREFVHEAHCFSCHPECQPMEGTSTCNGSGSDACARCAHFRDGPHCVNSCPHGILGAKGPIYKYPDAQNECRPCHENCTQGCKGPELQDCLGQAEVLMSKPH

binding result (mouse HER3) | binding result (rat HER3) | binding result [1] | Binder
binds | binds | – | 10D1F.FcA (anti-HER3 clone 10D1_c89 IgG1) (antibody, V domains shown, also called 10D1F.A) VH: QVQLQESGPGLVKPSQTLSLTCTVSGYSITSGYSWHWIRQHPGKGLEWIGSIRYSGGTDYNPSLKSLVTISADTSKNQFSLKLSSVTAADTAVYYCARMTTAPWYPFDYWGQGTTVTVSS VL: DIQMTQSPSSVSASVGDRVTITCKASQIVGSNVAWYQQKPGKAPEPLIYSASYLYSGVPSRFSGSGSGTDFTLTISSLQPEDFATYYCQQYSSHPLTFGQGTKLEIKR
– | – | binds | Fc-modified anti-HER3 antibody clone 10D1 comprising GASD substitutions in CH2 region (antibody, human IgG1, kappa, also called 10D1 GASD variant) heavy: not shown light: DIVMTQSQKFMSTSVGDRVSVTCKASQIVGSNVAWYQQKPGQSPKPLIYSASYRYSGVPDRFTASGSGTDFTLTITNVQSEDLAEYFCQQYSSHPLTFGAGTKLELKRTVAAPSVFIFPPSDEQLKSGTASVVCLLNNFYPREAKVQWKVDNALQSGNSQESVTEQDSKDSTYSLSSTLTLSKADYEKHKVYACEVTHQGLSSPVTKSFNRGEC
binds | binds | binds | anti-HER3 clone 10D1 IgG1 (antibody, Mouse variable regions on human IgG1/kappa constant regions (chimeric); also called 10D1P; 10D1 (parental)) heavy: not shown light: DIVMTQSQKFMSTSVGDRVSVTCKASQIVGSNVAWYQQKPGQSPKPLIYSASYRYSGVPDRFTASGSGTDFTLTITNVQSEDLAEYFCQQYSSHPLTFGAGTKLELKRTVAAPSVFIFPPSDEQLKSGTASVVCLLNNFYPREAKVQWKVDNALQSGNSQESVTEQDSKDSTYSLSSTLTLSKADYEKHKVYACEVTHQGLSSPVTKSFNRGEC
